{"source": "the DeepSol protein solubility set", "data": [{"experiment": "soluble on expression in E. coli; label from the status in PepcDB or PDB records", "values": [{"sequence": "MGSDKIHHHHHHMIIIELNKRQEHIIQIVKDHGPITGESIAAQLGLTRATLRPDLAILTMAGYLEARPRVGYFYTGKTGGQLLSEAVKKIKVQDYQSRPVVIDKNVSVYDAICTMFLEDVGTLFVVDQSTLLVGVVSRKDLLRASLGKQDLTSLPVNIIMTRMPNIAMCRREDSLYDIAMELIERQIDAMPVVKDTKQGLEVVGRITKTNITRAFVNLVNNE", "soluble on expression in E. coli": "not soluble"}, {"sequence": "MGSDKIHHHHHHCAASWVHPLTGAHLLLFGTEQGIYSFDTNCMPDGNLSKIHHRRCSWMFVYADRLTAIQGNTPYVYRHDLVALTQKNLTLKMSKNLNKIPEKYVPKRLAITVRMPETRGALQCTVKRGQGAQANSLFLCCAVRKTVHLFQWYNPMNQFVLVRSEPIREDIRFPIRPFALINSRTSDFPELCIGVGQMSGSNEYQFNMINFCSSTNNSELSGDLNSSYGSLADDEMLEVGSMHQIDRDTLCFSFRNKVVLTDLQGFERPKPSIFTFNFHIEYLHVVDGTILAFHANGVQGRDLKSNLNTQDLCDVSRLYRVIGDDRVIILRSQP", "soluble on expression in E. coli": "not soluble"}, {"sequence": "MAHHHHHHMRPSHKRQAQRQHPRQQCSVAHKAQRAPSSVHGTSGVEHLPRDAVVHVALRKQHRPAGQAHRRIKRHRVVPRRHKVAPHKYHSGARHAHSPTHRHRVLAQQEVAVNKRRNRAANCRNTALHRHAQPQRRLHKKPVHVQRTARRQRHAANHQHANSVAEHRRQLRARDVQHAPRQIHVV", "soluble on expression in E. coli": "soluble"}, {"sequence": "MNQKYILSANNNSLIEEIHNTVQSIGYCIVRGLNLNHLDGSRRNKKLFDFLSQLGMLTNHKGDGFKSIFWDIKY", "soluble on expression in E. coli": "not soluble"}, {"sequence": "MGSDKIHHHHHHMSLLVKAYRYGYTIARVTPASACWRYVGFAAYRLGTAEVVHVHEPSREVCIVVLTGTVDIETADTTWRSLGSRDSVFEDAAPYAVYLPPNVRATVRACRDAEIGVASAPARGGYPARLIEPASMKRSTRGKGLNTRYVCDILPQTEPAESLLVVEVRTPGGHASSYPPHKHDTDNVPQESSLEETYYHRLDPPQGFAFQRVYTDMRDIDESMAVEDHDVVMVPRGYHPVVVPYGYDSYYLNVMAGGKRVWHFRNDPAHEWIINKDA", "soluble on expression in E. coli": "not soluble"}, {"sequence": "MGSDKIHHHHHHMTFSAKNAAGETTGGVFTVALDRCAVYGRASSGAVCGSLLESAGWRPAAGSRVLVKPNLLRAQPDGLCCTHPQVVRAAVEYALDCGAVVTVGDSPAFGSAERVAQAVGLTDALQGLGVRVVTLDDPVDCRLPSGLRVGVARAALEADALLNVPRVKVHCQMRLTLAVKNLFGCVCGVRKAVAHTRHGDRGNRFEALIVELAERLPPSGVLLDGITAMHRTGPSGGDPYLLGLLGASCSSVAMDTAVGTLLGAAPETIPLWAELRRRKQPAAFVENLHFPVLFPADFSPQGVTPDGFCIPQVLKPVSFRPATLLRSLVRRMWHRYGPSA", "soluble on expression in E. coli": "not soluble"}, {"sequence": "MENMIVIMAGGRSSRMGAEKPILKVNGKPMILRVYEESTKVGETLVAISKNTPKTRELCIKEGIPLIETPGEGYVEDVRYLLKELGSFVSVSADLPFVKACDIAEVKKAFDGKTSLTGVLPLSKVPTDLRPVVYKGYVIVGLNGVGFEGEKFYELSNPLLALNVNTPEELKLANRIAKLIGLEHHHHHH", "soluble on expression in E. coli": "not soluble"}, {"sequence": "MAIKDLFNNFFLMDDEEEVESPEERQRRVVQNEENETNNVQQNQPQQSERSYSNQSKLKTVPQKKTTRNYNSEERNVRMNQPPSKSNGKNVVTMNQTSQSYSGYESSKMCLFEPRVFSDTQDIADELKNRRATLVNLQRIDKISAKRIIDFLSGTVYAIGGDIQRVGTDIFLCTPDNVEVAGSITDHIEQMESQHYELEHHHHHH", "soluble on expression in E. coli": "not soluble"}, {"sequence": "MVAIIFDMDGVLYRGNRAIPGVRELIEFLKERGIPFAFLTNNSTKTPEMYREKLLKMGIDVSSSIIITSGLATRLYMSKHLDPGKIFVIGGEGLVKEMQALGWGIVTLDEARQGSWKEVKHVVVGLDPDLTYEKLKYATLAIRNGATFIGTNPDATLPGEEGIYPGAGSIIAALKVATNVEPIIIGKPNEPMYEVVREMFPGEELWMVGDRLDTDIAFAKKFGMKAIMVLTGVSSLEDIKKSEYKPDLVLPSVYELIDYLKTL", "soluble on expression in E. coli": "soluble"}, {"sequence": "MGSDKIHHHHHHMHKDVSQLPQKANPALVKQANLFADLPTKLIEDFQQEFQLNQWNKGDYINSDILTQRFFVVIEGNIEIKQSNPDTGREATLDMLYAGDCFDLMVLLDNQPHEVIISPLTTVKLLSVKLSTMRYWLWTYPEFNQQFMPYIAKKMREKEQQASSLILHDVTTRLSRIILEHINKIKFYTGTKEEEHQHHLVNGLNDETLARMTGSVRQVINKQLQHWKKEDVIDKKRNQLIIKDLEALEKEAKYTQNLANAPLSKS", "soluble on expression in E. coli": "not soluble"}, {"sequence": "MADIAILVAEEYERRMKHTTVGSRSSPVEFDWWKIIPAKMTIAFDKMKIESLKKNFEAKSEFALAISHGFFSA", "soluble on expression in E. coli": "not soluble"}, {"sequence": "SAASGESGTSGGGGSTEEAFMTFYSEVKQIEKRDSVLTSKNQIERLTRPGSSYFNLNPFEVLQIDPEVTDEEIKKRFRQLSILVHPDKNQDDADRAQKAFEAVDKAYKLLLDQEQKKRALDVIQAGKEYVEHTVKERKKQLKKEGKPTIVEEDDPELFKQAVYKQTMKLFAELEIKRKEREAKEMHERKRQREEEIEAQEKAKREREWQKNFEESRDGRVDSWRNFQANTKGKKEKKNRTFLRPPKVKMEQRE", "soluble on expression in E. coli": "soluble"}, {"sequence": "MGSDKIHHHHHHMEKSEEKEIICRMFNSPLPHPSQNHLLAALPAMELGDLIPHLELIHMRAGDILCEAGDQLPYAYFPASAIISLHYILENGASSEIANVGREGMLGVSLFMGGETSSNWATVQIPGFAYRLKAAFLSQELKRGGQLQWILLRYSQALITQIAQIGVCNRYHTIEQQLCRWFLLTLDRLDSSELSMTQELIANALGVSRESVAGVAGKLQGRGIIRYQRGHITVLNRTGLETGACECYETIKKEFDDALDDVRKPTLHQGDQSSKTLPLL", "soluble on expression in E. coli": "not soluble"}, {"sequence": "MAHHHHHHMGNKISTEDHIFRLKLKTKELEKLSQRSELEEKKLIGDVKKAIQAGKIELARLYAEKCIRKKNEKVNYLNLSNKLDVLVSRLEGAHRCASLVKDVGVMIPLIQKINAETNAIKIGNDVTKLENIFDEISISSELINDTVQTSSAISAPTEEVDELISKIADEHALKLDGQIGSVHPINKHLEEISNMSERIKNLK", "soluble on expression in E. coli": "soluble"}, {"sequence": "MGSDKIHHHHHHMVGIVLASHGGFADGIAESAQMLFGPQDNFAHVILKPSEGPEDIKGKMNEAIASFADQEEVLFLVDLWGGTPFNQANGLLDGHDKWAIVSGLNLPMVVEALTQRMINDKATAQDIATAIIKPAKDGIKTKPESLMPAEEKAAAPAAAAGAPKEAIPEGTVLGDGHIKIVGARIDSRLLHGQVVTGWIPSLHPDRVIVVSDKIAKDDLRKSMIREAAPAGTVAHTVPLEKMKEIYEDPRFGTTHAFLLFENPEDALQTIKNGVDIKTLNVGSMSYSKGKVNANNVLSMDQTDVDTFRELEKMGIKFDVRKVPSDNPENMDSILKKAQSLLDEQSSSEKRS", "soluble on expression in E. coli": "not soluble"}, {"sequence": "MGSDKIHHHHHHMKYYICVCVFLLLNACNSDFSTNQEDIKYPSDKEKSKSNMEASSKEEDPNKKIKNTLLNDLINLIEIANEHKEKYEKRMQEEPSDQYGILAFQELDLSVGKISEDTPQSKKFRKNTYSPLSAIDVNKLKDLSEIIRNSGQIQGLFNIFNRFGGIFDDSLNHVYSKKDILGGLEILDLDKLKNSFEKLLSIKETFSKMLNQLLLDYKNDKDHIRTETNKLKSHTTALFEQLDKKEDEAYEPKNQIFSISNL", "soluble on expression in E. coli": "not soluble"}, {"sequence": "MPRFAANLSMMFTEVPFIERFAAARKAGFDAVEFLFPYNYSTLQIQKQLEQNHLTLALFNTAPGDINAGEWGLSALPGREHEAHADIDLALEYALALNCEQVHVMAGVVPAGEDAERYRAVFIDNIRYAADRFAPHGKRILVEALSPGVKPHYLFSSQYQALAIVEEVARDNVFIQLDTFHAQKVDGNLTHLIRDYAGKYAHVQIAGLPDRHEPDDGEINYPWLFRLFDEVGYQGWIGCEYKPRGLTEEGLGWFDAWRGS", "soluble on expression in E. coli": "soluble"}, {"sequence": "MSLSRPQFDPSAYAAQLEDKKSRLAGLLAPFAAPAPEVFESPREHYRLRAEFRLWRETGNEKRHYAMFEQGDKHTPILLEDFPIASRRINELMPRLKAAWADPALGFKLFQVEFLTTLAGDALITLCYHRPIDDAWRQAAEKLAAELGVNLVGRSRGKRIVVGRDYVEEELSVAGRRFRYRQPEGAFTQPNGEVNQKMLGWAYEALGQRDDDLLELYCGNGNFTLPLATRVRKVLATEISKSSVNAALANLADNAVDNVSLVRLSAEELTQALNEVRPFRRLADIDLKSYAFGSVFVDPPRAGMDPDTCELARRFERILYISCNPETLAQNIAQLHDTHRISRCALFDQFPYTHHMESGVLLEEGHHHHHH", "soluble on expression in E. coli": "soluble"}, {"sequence": "SLSTIGSMMSIYSEAGDFGNIFVTGRIAFSLKYEQQTQSLVVHVKECHQLAYADEAKKRSNPYVKTYLLPDKSRQGKRKTSIKRDTVNPLYDETLRYEIPESLLAQRTLQFSVWHHGRFGRNTFLGEAEIQMDSWKLDKKLDHCLPLHGKISAESPTGLPSHKGELVVSLKYIPASKTPVGGDRKKSKGGEGGELQVWIKEAKNLTAAKAGGTSDSFVKGYLLPMRNKASKRKTPVMKKTLNPHYNHTFVYNGVRLEDLQHMCLELTVWDREPLASNDFLGGVRLGVGTGISNGEVVDWMDSTGEEVSLWQKMRQYPGSWAEGTLQLRSSMAKQKLG", "soluble on expression in E. coli": "soluble"}, {"sequence": "MGSDKIHHHHHHMDHEQIESQPWPQEGLERVERCPICGEVDRALLHDGLTDKIFFCAPGRWSLYQCPTCGAAYLDPRPTPATIAMAYSDYYTHEEGDDAPKGRFAHLKRRLRNDYLNARYNADLQPAWKVGRWITPLLGRKRKQIDESVRHLPATGKPGVLVDIGCGNGQFLGVAMQLGWEAWGVDLDPKAVKTAQKTGATVIQGGFPDTGLPSAHFDIVTLSHVIEHVHDPLAALREAFRVLKPGGHLWLATPNMGSFGHVRFGADWRGLEPPRHLVLFNNNSLEIALDGAGFIDIKQKPCLAQAAWFYQSSLRISRCQDPYDASASGLPLTLWIAAKLVDFRVAVSPFRCESIVVTAKRPESD", "soluble on expression in E. coli": "not soluble"}, {"sequence": "TPLLKTEFFPQSDNGYIQIQAEYPVGTGVNLPRAFALRMIDSWEKEIPEIDRTSFSVGQAEASSMFAAMQDNGTNIITFHIGLTGRNERKRSMNEVADQIRTMLDDYPEIHSYKVTPGGSGGGMGGQPTVNLDIYGYDFNKTGDLAERFSRLMKEDARCAQATISRKDYVPEYQFVFDRTKLAENGLNSTTAAMFLRNRVNGRVASTYREEGDEYDIRVRLAPEFRRSLRDLENILIYTPQGKGVRLGELGKIEELYTPPTIERKDRQRVVIVASTAVKGAALSDLVEVAKEKIAQLEIPDGIDYKISGTYEDQQKTFAD", "soluble on expression in E. coli": "not soluble"}, {"sequence": "MSTRKAVIGYYFIPTNQINNYTETDTSVVPFPVSNITPAKAKQLTHINFSFLDINSNLECAWDPATNDAKARDVVNRLTALKAHNPSLRIMFSIGGWYYSNDLGVSHANYVNAVKTPASRAKFAQSCVRIMKDYGFDGVDINWEYPQAAEVDGFIAALQEIRTLLNQQTITDGRQALPYQLTIAGAGGAFFLSRYYSKLAQIVAPLDYINLMTYDLAGPWEKVTNHQAALFGDAAGPTFYNALREANLGWSWEELTRAFPSPFSLTVDAAVQQHLMMEGVPSAKIVMGVPFYGRAFKGVSGGNGGQYSSHSTPGEDPYPSTDYWLVGCEECVRDKDPRIASYRQLEQMLQGNYGYQRLWNDKTKTPYLYHAQNGLFVTYDDAESFKYKAKYIKQQQLGGVMFWHLGQDNRNGDLLAALDRYFNAADYDDSQLDMGTGLRYTGVGPGNLPIMTAPAYVPGTTYAQGALVSYQGYVWQTKWGYITSAPGSDSAWLKVGRVA", "soluble on expression in E. coli": "soluble"}]}]}
